We go through two substances from publication PMC8546545.

Assay [1] concerns the target OdhI (Oxoglutarate dehydrogenase Inhibitor), FHA substrate of PknG (Corynebacterium glutamicum) (UniProt Q8NQJ3).
Assay [2] shares this target. The source holds these as a separate data set.

Sequence of UniProt Q8NQJ3 (Q8NQJ3 whole entry): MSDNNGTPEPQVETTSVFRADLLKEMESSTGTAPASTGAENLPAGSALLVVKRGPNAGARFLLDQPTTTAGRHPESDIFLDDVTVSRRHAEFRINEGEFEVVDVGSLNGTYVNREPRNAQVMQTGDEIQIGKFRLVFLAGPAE

As to “CgPknG deletion mutant lacking residues 1 to 129 and 434 to 822 (domain or fragment)”, the kinase activity ([γ-32P]ATP) against OdhI compared to the full-length enzyme (phosphorylation of the 17-mer peptide unaffected) in assay [1] worked out at 7 fold lower.

Consider “Ser/Thr protein kinase PknG from Corynebacterium glutamicum, full length (enzyme)”, for which the kinase activity ([γ-32P]ATP) of CgPknG toward OdhI (25 μM) compared with the 17-mer peptide substrate lacking an FHA domain (330 μM) in assay [2] was determined as 45 fold.
